T1: human DLL3 (delta-like protein 3 isoform 1 precursor) expressed on Ba/F3 cells (human, UniProt Q9NYJ7 27-618)
T1 construct: Full-length cDNA stably transfected into mouse Ba/F3 cells; also called human DLL3 expressing Ba/F3
T1 sequence: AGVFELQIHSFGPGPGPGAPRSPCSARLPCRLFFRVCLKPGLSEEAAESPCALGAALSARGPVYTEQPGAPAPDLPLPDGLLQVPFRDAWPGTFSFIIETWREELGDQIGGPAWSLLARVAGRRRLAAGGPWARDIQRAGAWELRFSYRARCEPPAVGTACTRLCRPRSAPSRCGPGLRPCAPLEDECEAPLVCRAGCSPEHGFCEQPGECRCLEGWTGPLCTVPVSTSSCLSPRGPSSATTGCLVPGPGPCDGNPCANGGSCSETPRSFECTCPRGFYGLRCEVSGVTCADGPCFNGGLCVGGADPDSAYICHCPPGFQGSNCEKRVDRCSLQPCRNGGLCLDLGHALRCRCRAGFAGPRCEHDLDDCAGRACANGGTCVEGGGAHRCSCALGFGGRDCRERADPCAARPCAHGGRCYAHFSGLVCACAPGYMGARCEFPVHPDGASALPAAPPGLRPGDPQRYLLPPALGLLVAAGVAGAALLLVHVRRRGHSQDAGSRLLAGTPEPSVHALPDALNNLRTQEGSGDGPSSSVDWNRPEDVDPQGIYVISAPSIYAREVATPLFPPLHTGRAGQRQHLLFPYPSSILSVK

T2: del0
T2 construct: also called human DLL3 ECD with Flag-tag on C-terminus
T2 chain: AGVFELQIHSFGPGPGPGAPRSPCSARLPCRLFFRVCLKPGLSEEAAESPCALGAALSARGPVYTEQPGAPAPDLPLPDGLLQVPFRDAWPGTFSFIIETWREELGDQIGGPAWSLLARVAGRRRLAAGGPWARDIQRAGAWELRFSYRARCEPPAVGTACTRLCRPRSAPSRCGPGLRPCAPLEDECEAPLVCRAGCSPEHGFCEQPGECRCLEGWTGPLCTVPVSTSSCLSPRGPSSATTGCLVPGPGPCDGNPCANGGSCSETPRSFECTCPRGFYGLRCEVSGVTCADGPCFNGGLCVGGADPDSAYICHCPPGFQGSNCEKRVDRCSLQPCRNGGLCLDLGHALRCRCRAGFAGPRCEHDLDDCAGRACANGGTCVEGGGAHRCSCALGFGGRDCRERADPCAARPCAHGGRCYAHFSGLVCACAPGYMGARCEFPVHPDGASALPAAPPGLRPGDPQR

T3: del5
T3 construct: also called truncated human DLL3 ECD variant with Flag-tag on C-terminus
T3 chain: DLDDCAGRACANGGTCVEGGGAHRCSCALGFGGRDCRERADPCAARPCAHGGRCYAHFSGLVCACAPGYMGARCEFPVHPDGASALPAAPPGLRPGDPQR

T4: del6
T4 construct: also called truncated human DLL3 ECD variant with Flag-tag on C-terminus
T4 chain: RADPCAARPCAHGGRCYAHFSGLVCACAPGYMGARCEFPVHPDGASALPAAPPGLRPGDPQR

T5: del2
T5 construct: also called truncated human DLL3 ECD variant with Flag-tag on C-terminus
T5 chain: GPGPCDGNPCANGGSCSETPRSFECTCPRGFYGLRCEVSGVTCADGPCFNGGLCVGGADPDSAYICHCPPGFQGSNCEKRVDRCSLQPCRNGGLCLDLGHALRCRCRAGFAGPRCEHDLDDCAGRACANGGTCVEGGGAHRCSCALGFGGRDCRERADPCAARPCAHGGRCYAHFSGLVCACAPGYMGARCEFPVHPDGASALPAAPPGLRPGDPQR

T6: del3
T6 construct: also called truncated human DLL3 ECD variant with Flag-tag on C-terminus
T6 chain: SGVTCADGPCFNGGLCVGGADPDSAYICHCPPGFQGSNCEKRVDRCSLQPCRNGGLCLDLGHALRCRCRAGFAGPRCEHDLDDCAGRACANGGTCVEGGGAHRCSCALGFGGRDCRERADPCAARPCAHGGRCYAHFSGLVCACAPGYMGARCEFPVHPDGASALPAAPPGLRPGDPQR

T7: del4
T7 construct: also called truncated human DLL3 ECD variant with Flag-tag on C-terminus
T7 chain: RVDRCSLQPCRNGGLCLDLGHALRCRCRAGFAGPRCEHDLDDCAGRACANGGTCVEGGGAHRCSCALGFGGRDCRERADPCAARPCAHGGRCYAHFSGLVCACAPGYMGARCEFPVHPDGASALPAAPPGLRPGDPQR

T8: human DLL3 on the surface of cancer cell lines SK-MEL 30, NCI-H1436 and NCI-H2227 (human, UniProt Q9NYJ7 27-618)
T8 construct: whole, on cells; Endogenous protein of human cancer cell lines
T8 sequence (looked up): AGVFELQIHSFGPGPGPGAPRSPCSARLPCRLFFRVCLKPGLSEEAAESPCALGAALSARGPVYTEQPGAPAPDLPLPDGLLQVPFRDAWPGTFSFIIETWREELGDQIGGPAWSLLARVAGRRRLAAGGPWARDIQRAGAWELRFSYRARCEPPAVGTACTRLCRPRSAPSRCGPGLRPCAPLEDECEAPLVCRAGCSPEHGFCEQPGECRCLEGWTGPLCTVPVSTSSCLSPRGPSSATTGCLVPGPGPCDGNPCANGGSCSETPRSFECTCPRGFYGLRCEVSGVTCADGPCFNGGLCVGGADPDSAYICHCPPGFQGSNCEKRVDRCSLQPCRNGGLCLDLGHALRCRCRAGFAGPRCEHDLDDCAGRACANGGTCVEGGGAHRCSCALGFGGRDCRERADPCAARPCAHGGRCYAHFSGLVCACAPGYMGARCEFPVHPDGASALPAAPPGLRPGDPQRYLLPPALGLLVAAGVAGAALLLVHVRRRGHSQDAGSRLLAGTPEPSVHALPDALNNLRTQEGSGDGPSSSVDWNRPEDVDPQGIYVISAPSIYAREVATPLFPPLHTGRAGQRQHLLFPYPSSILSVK


What was measured:
[1] = target: T1, human DLL3 (delta-like protein 3 …); experiment: cell ELISA, B-cell culture supernatants on immobilized hDLL3/BaF_H3 cells
Method: ELISA screening was conducted to test specificity of antibodies in B-cell culture supernatants. Human DLL3 expressing Ba/F3 (hDLL3/BaF_H3 established in Example 2, 2.5×10⁴ cells) were immobilized onto a Nunc MaxiSorp 384-well plate (Sigma-Aldrich) which was pre-coated with BSA (Sigma-Aldrich) and SUNBRIGHT (registered trademark) OE-080CS as Biocompatible Anchor for cell Membrane (YUKA SANGYO). Immobilized cells were incubated with 20 microliters (micro L) of B-cell culture supernatants for 1 hour. The supernatants were aspirated and the cells were washed with HEPES buffer (0.02 M HEPES, 5 mM KCl, 4 mM NaHCO₃, 138 mM NaCl, 2 mM CaCl₂, 5 mM Glucose, 0.4 mM KH₂PO₄, 0.34 mM Na₂HPO₄° and 0.1% BSA). After washing, goat anti-rabbit IgG polyclonal antibody HRP conjugate (BETHYL, A120-111P) was added. The cells were further incubated on ice for 1 hour and washed. Then, ABTS Microwell Peroxidase Substrate (Kirkegaard & Perry Laboratories) was added and OD405 was analyzed with […]ax 384 (Molecular Devices).

del0 = target: T2, del0; experiment: ELISA with the human DLL3 ECD fragment proteins del0 to del6, OD405
Method: (§1) Nunc MaxiSorp 384-well plates (Sigma-Aldrich) were coated with each of the human DLL3 ECD fragment proteins del0 to del6, and blocked with 20% Blocking One (NACALAI TESQUE). Blocking buffer was removed and recombinant anti-DLL3 antibodies were incubated with the immobilized proteins for 1 hour at room temperature and washed with HEPES buffer (0.05% Tween20, HEPES). Monoclonal ANTI-FLAG M2-Peroxidase, Clone M2 (Sigma-Aldrich) was then added and incubated for 1 hour at room temperature and washed. Then, ABTS Microwell Peroxidase Substrate (Kirkegaard & Perry Laboratories) was added and OD405 was analyzed with […]ax 384 (Molecular Devices).

del5 = target: T3, del5; experiment: as above
Method: as §1

del6 = target: T4, del6; experiment: as above
Method: as §1

del2 = target: T5, del2; experiment: as above
Method: as §1

del3 = target: T6, del3; experiment: as above
Method: as §1

del4 = target: T7, del4; experiment: as above
Method: as §1

[2] = target: T8, human DLL3 on the surface of cancer …; experiment: flow cytometry on SK-MEL-30 cells, 20 micro g/mL antibody, FITC-labeled goat anti-rabbit IgG [A]
Method: The cancer cells (5×10⁵ cells) were washed with 0.5% BSA-supplemented CellWASH (BD Bioscience) (hereinafter referred to as FACS/PBS). Bivalent anti-DLL3 antibody (DLA0316-rbIgG) or the control antibody (rabbit IgG) was added at a final concentration of 20 micro g/mL in a 50 micro L solution. After being left to stand at 4 degrees C. for 30 to 60 minutes, the cells were washed with FACS/PBS, and an FITC-labeled goat anti-rabbit IgG antibody diluted 50-fold with FACS/PBS was added to the cells. After being left to stand at 4 degrees C. for further 30 minutes, the cells were washed with FACS/PBS, and analyzed by FACS Verse (Becton Dickinson).

binding result [1] | binding result (del0) | binding result (del5) | binding result (del6) | binding result (del2) | binding result (del3) | binding result (del4) | binding result [2] | Binder
binds | binds | no binding | no binding |  |  |  |  | DLA0126 (antibody, human IgG1, V domains shown, Rabbit B-cell clone, screened as B-cell culture supernatant) VH: QSVEESGGRLVTPGTPLTLTCTVSGFSLSRYAMSWVRQAPGKGLEWIGIITGGGDPYYASWAKGRFTISKTSTTMDLKITSPTTEDTATYFCARMIGSEYASSSEYYDAFDPWGPGTLVTVSS VL: ALVMTQTPSSVSAAVGGTVTINCQASQNIYSNLAWYQQKPGQRPKLLIYGASNLESGVPSRFKGSGSGTEYTLTISDLECDDAAIYYCQSAYYTTSVDVLYPFGGGTEVVVK
binds | binds | no binding | no binding | no binding | no binding | no binding |  | DLA0379 (antibody, human IgG1, V domains shown, Rabbit B-cell clone, screened as B-cell culture supernatant) VH: QSLEESGGRLVTPGTPLTLTCTASGFSLNTYHMIWVRQAPGKGLEWIGIVDSGGSTYYASWAKGRFTISRTSTTVDLKATSLTTEDTATYFCARGGSWDGFNIWGPGTLVTVSS VL: DVVMTQTPSSVSAAVGGTVTINCQSSQSVYNSDFLAWYQQKPGQPPKLLIYAASTLASGVPSRFKGSGSGTQFTLTISDLECDDAATYYCQGTYEDVGWFNDFGGGTEVVVK
binds | binds | no binding | no binding |  |  |  |  | DLA0580 (antibody, human IgG1, V domains shown, Rabbit B-cell clone, screened as B-cell culture supernatant) VH: QEQLVESGGGLVQPGASLTLTCKASGFDFTSNAMCWVRQAPGKGPEWIACIYNDDGSAYSASWAKGRFTVSKTSSTAVTLQVTGLTAADTATYFCARSPYYTYGGAPSAYASGYFNLWGPGTLVTVSS VL: DIVMTQTPASVEAAVGGTVTIKCQASENIYNSLAWYQQKPGQPPKLLMHDASVLTSGVPSRFSGSGYGTEFTLTISDLECADAATYYCQSDYYSTGGSYGFAFGGGTEVVVK
 |  |  |  |  |  |  | binds | DLA0316-rbIgG (antibody, V domains shown, also called bivalent DLA0316; Bivalent anti-DLL3 antibody) VH: QEQLVESGGGLVQPGGSLKLSCKVSGFDFSNYGVSWVRQAPGKGLEWIGYIDPAFGRTYYASWVNGRFTISSHNAQNTLYLQLNSLTAADTATYFCVRVALVVAGVAYYGMDVWGPGTLVTVSS VL: DVVMTQTPASVEAAVGGTVTINCQASQNIYSYLSWYQQKPGQPPKLLIYRTSTLASGVPSRFKGSGSGTQFTLTISDLECADAATYYCQSYYYSSGSSYGAFAFGGGTEVVVK

Source: patent US20240150465A1 (Chugai, published 2024)
